From patent US12571058 come the findings set out here.

Where only a bound is given, the exact number is not on record here.

The assay concerns the target histidine kinase UzcS (Caulobacter crescentus NA1000). The assay can be described thus: cell-based or functional assay.

Sequence of histidine kinase UzcS (Caulobacter crescentus NA1000) (chain, as listed by the source limits assumed, form in doubt): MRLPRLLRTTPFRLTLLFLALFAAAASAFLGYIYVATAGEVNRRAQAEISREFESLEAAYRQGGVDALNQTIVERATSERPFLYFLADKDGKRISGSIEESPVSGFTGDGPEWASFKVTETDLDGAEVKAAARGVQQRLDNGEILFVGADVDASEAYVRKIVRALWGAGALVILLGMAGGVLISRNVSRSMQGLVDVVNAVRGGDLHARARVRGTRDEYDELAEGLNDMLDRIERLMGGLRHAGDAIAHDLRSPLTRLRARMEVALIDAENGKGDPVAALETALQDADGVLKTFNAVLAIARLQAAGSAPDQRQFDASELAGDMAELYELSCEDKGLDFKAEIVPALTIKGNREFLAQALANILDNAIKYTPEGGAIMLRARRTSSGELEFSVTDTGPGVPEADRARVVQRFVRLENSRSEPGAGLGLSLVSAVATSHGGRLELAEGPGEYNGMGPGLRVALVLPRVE

Consider UzcY, for which the fold decrease in U detection limit of UzcRS (reporter fluorescence with and without UzcY, FIG. 12) was > 4 fold.
